The text below walks through data of patent publication US20040203128A1 (GENSET S A, published 2004).

The assay deals with GST protein (negative control, from pGEX2TK) (UniProt P08515 1-218 = GST). In words: solid phase overlay assay, 32P-labeled GST-PPP2R2C probe on blotted protein.
Sequence of GST protein (negative control, from pGEX2TK) (P08515 whole entry): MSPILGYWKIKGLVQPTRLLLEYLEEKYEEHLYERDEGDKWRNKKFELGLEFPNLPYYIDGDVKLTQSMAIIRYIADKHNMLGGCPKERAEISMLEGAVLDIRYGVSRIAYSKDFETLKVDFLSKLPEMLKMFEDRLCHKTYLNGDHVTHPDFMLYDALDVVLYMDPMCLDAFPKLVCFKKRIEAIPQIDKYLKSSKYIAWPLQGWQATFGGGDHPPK

Description: After 4.5 hr of incubation, the membrane was washed with Hyb75 buffer, 1 mM DTT, 1% (w/v) non-fat dry milk three times for 15 min at room temperature. The blots were analyzed by autoradiography.

B1: GST-PPP2R2C radiolabeled recombinant protein (other)
chain: GEDTDTRKINHSFLRDHSYVTEADIISTVEFNHTGELLATGDKGGRVVIFQREPESKNAPHSQGDYDVYSTFQSHEPEFDYLKSLEIEEKINKIKWLPQQNAAHSLLSTNDKTIKLWKITERDKRPEGYNLKDEEGKLKDLSTVTSLQVPVLKPMDLMVEVSPRRIFANGHTYHINSISVNSDCETYMSADDLRINLWHLAITDRSFNIVDIKPANMEDLTEVITASEFHPHHCNLFVYSSSKGSLRLCDMPAAALCDKHSKLFEEPEDPSNRSFFSEIISSVSDVKFSHSDRYMLTRDYLTVKVWDLNMEARPIETYQVHDYLRSKLCSLYENDCIFDKFECAWNGSDSVIMTGAYNNFFRMFDRNTKRDVTLEASRESSKPRAVLKPRRVCVGGKRRRDDISVDSLDFTKKILHTAWHPAENIIAIAATNNLYIFQDKVNSDMH
modifications: 32P-phosphorylated in vitro with PKA and [32P]-γATP (site not stated)
notes: Insert is nucleotides 55-1540 of AF086924 (the bait construct starts at 52), so the first codon may be missing; also called PP2A/Bγ; protein encoded by pGEX-2TK-PPP2R2C; not shown: glutathione S-transferase encoded by the pGEX-2TK vector (Amersham Pharmacia Biotech)
In the case of B1, the binding result is “no binding (tested: 100 ng, 10 ng and 0.1 ng of GST loaded)”.
